In publication PMC12231599, “Elucidation of multiple high-resolution states of human MutSβ by cryo-EM reveals interplay between ATP/ADP binding and heteroduplex DNA recognition”:

What was measured:
[1] = molecular target: T1, MSH2 (MutSβ subunit);MSH3 (MutSβ subunit) (Homo sapiens;Homo sapiens, UniProt P43246;P20585 1-934;1-1137, |); test: FRET (DNA bending); no ATP; 100 nM protein; SPR: 25 mM HEPES pH 7.5, 150 mM KCl, 5 mM MgCl2, 1 mM DTT, 0.05% Tween, 0.05% BSA, 25 C; FRET: 50 mM HEPES pH 7.0, 200 mM NaCl, 1 mM MgCl2, 1 mM DTT, 0.05% Tween-20, RT; settings: protein: recombinant;recombinant, tags: none;none, copies: 1;1, label: Cy5 strand 1, Cy3 strand 2, 5' digoxigenin, blunt
[2] = molecular target: T1, MSH2 (MutSβ subunit);MSH3 (MutSβ …); test: SPR (steady state); no ATP; 5 mM Mg2+; SPR: 25 mM HEPES pH 7.5, 150 mM KCl, 5 mM MgCl2, 1 mM DTT, 0.05% Tween, 0.05% BSA, 25 C; FRET: 50 mM HEPES pH 7.0, 200 mM NaCl, 1 mM MgCl2, 1 mM DTT, 0.05% Tween-20, RT; settings: protein: recombinant;recombinant; tags: none;none; copies: 1;1; label: 5' biotin; blunt
[3] = molecular target: T1, MSH2 (MutSβ subunit);MSH3 (MutSβ …); test: SPR (steady state); 5 mM Mg2+; no ATP; SPR: 25 mM HEPES pH 7.5, 150 mM KCl, 5 mM MgCl2, 1 mM DTT, 0.05% Tween, 0.05% BSA, 25 C; FRET: 50 mM HEPES pH 7.0, 200 mM NaCl, 1 mM MgCl2, 1 mM DTT, 0.05% Tween-20, RT; settings: protein: recombinant;recombinant; tags: none;none; copies: 1;1; label: 5' biotin; blunt, (CAG)2 6-nt extrahelical loop in strand 1
[4] = molecular target: T1, MSH2 (MutSβ subunit);MSH3 (MutSβ …); test: SPR (kinetic, preferred by authors); 5 mM Mg2+; no ATP; SPR: 25 mM HEPES pH 7.5, 150 mM KCl, 5 mM MgCl2, 1 mM DTT, 0.05% Tween, 0.05% BSA, 25 C; FRET: 50 mM HEPES pH 7.0, 200 mM NaCl, 1 mM MgCl2, 1 mM DTT, 0.05% Tween-20, RT; settings: protein: recombinant;recombinant; tags: none;none; copies: 1;1; label: 5' biotin; blunt, (CAG)2 6-nt extrahelical loop in strand 1

B1: 70 bp (CAG)1 loop DNA (FRET) (dsDNA)
DNA 1: CACACGTTCCGAGATATCCTAGCAAGTGATCAGCGTCTATGTAGCTCAAGAGTTCGACTCAGCCTACACCGAG
DNA 2: CTCGGTGTAGGCTGAGTCGAACTCTTGAGCTACATAGACGATCACTTGCTAGGATATCTCGGAACGTGTG
modifications: internal dye-dT
[1]; 3-nt CAG loop in strand 1
  binding result: binds

B2: 70 bp (CAG)2 loop DNA (FRET) (dsDNA)
DNA 1: CACACGTTCCGAGATATCCTAGCAAGTGATCAGCAGCGTCTATGTAGCTCAAGAGTTCGACTCAGCCTACACCGAG
DNA 2: CTCGGTGTAGGCTGAGTCGAACTCTTGAGCTACATAGACGATCACTTGCTAGGATATCTCGGAACGTGTG
modifications: internal dye-dT
[1]; 6-nt (CAG)2 loop in strand 1
  binding result: binds

B3: 70 bp (CAG)4 loop DNA (FRET) (dsDNA)
DNA 1: CACACGTTCCGAGATATCCTAGCAAGTGATCAGCAGCAGCAGCGTCTATGTAGCTCAAGAGTTCGACTCAGCCTACACCGAG
DNA 2: CTCGGTGTAGGCTGAGTCGAACTCTTGAGCTACATAGACGATCACTTGCTAGGATATCTCGGAACGTGTG
modifications: internal dye-dT
[1]; 12-nt (CAG)4 loop in strand 1
  binding result: binds

B4: 61 bp homoduplex, biotinylated (SPR) (dsDNA)
DNA 1: CTGAAGCTTAGCTTAGGATCATCGAGGATCAGCTCGGTGCAATTCAGCGGTACCCAATTC
DNA 2: GAATTGGGTACCGCTGAATTGCACCGAGCTGATCCTCGATGATCCTAAGCTAAGCTTCAG
[2]
  Kd: 3.32 nM

B5: 61 bp (CAG)2 loop DNA, biotinylated (SPR) (dsDNA)
DNA 1: CTGAAGCTTAGCTTAGGATCATCGAGGATCCAGCAGAGCTCGGTGCAATTCAGCGGTACCCAATTC
DNA 2: GAATTGGGTACCGCTGAATTGCACCGAGCTGATCCTCGATGATCCTAAGCTAAGCTTCAG
[3]
  Kd: 0.265 nM
[4]
  Kd: 0.0672 nM
